In publication PMC3142795:

Legend:
IFI16 HINab = IFI16 HINab (UniProt Q16666 189-761); experiment: AlphaScreen
IFI16 HINa = IFI16 HINa (UniProt Q16666 189-389); experiment: AlphaScreen
Chain of IFI16 HINa (Q16666 189-389): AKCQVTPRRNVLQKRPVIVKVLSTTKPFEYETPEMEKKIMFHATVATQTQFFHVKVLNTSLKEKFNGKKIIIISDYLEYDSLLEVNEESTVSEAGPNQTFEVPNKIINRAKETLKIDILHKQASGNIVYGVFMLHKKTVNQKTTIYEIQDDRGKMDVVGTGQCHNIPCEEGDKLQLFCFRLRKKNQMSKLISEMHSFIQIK

Chain of IFI16 HINab (Q16666 189-761): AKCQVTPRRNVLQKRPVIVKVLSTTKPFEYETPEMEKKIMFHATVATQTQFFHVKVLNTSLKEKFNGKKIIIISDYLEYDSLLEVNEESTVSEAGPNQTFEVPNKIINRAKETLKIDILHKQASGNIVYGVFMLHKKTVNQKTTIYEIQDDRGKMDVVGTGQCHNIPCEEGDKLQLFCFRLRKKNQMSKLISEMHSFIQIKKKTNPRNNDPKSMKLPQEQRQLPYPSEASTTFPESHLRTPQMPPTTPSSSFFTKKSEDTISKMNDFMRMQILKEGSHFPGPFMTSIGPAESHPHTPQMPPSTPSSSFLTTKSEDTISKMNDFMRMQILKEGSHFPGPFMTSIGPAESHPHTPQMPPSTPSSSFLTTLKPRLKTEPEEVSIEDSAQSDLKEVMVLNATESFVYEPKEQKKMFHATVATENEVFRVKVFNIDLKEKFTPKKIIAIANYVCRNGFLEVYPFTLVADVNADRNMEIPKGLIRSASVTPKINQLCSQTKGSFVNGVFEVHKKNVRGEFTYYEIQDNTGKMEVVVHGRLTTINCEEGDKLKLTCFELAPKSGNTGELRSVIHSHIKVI

B1: dsVACV 70mer (dsDNA)
DNA 1: CCATCAGAAAGAGGTTTAATATTTTTGTGAGACCATCGAAGAGAGAAAGAGATAAAACTTTTTTACGACT
DNA 2: AGTCGTAAAAAAGTTTTATCTCTTTCTCTCTTCGATGGTCTCACAAAAATATTAAACCTCTTTCTGATGG
**Q.** Which results are given for B1?
**A.** binding result (IFI16 HINab): binds; binding result (IFI16 HINa): no binding
